Reference: patent US20060217306A1, “Systemic treatment of infections with defensins” (Novozymes A/S, priority 2005, published 2006)
Several values for one entry are separate records, joined by “and”; a condition that tells them apart may be missing. Equal entries are not always repeated. No end group written: not given here.

Key:
S. pneumoniae strain D39 [1] = test: Treatment of pneumococcal peritoneal infection, colony counts in peritoneal wash, strain D39; type: in vivo, mice; details: for Colony counts: strain D39, peritoneal wash, individual mice
Description: (§1) Three different pneumococcal strains were employed in this study (6A, D39 and 68034). Three mice per sampling point were inoculated with a specific S. pneumoniae i.p., and were treated 1 hour later with a single dose of 10 mg/kg Plectasin. Peritoneal wash was sampled for microbial counts prior to treatment (T=0), and at T=2 and T=5 hrs after. The colony counts are listed below for all three strains.

[2] = Single dose intravenous toxicity study in the mouse / maximum tolerable dose; type: in vivo; details: 125 mg/kg single i.v. dose
Description: The study, to determine the maximum tolerable dose in mice, should be initiated with a sighting study to select the appropriate dose level for the main study. For example, six dose levels could be investigated using one male and one female mouse at each dose level.
On the basis of any signs of toxicity, the selected dose is administered to five male and five female mice as a single intravenous dose in a dose volume of 10 ml/kg. The dose should be administered slowly in the tail vein (e.g., 20 seconds per injection using a 1 ml syringe with a 25G hypodermic needle). All animals should be observed for any signs of toxicity after 15 minutes, 1 hour, 3 hours, 6 hours and 24 hours after administration.
A single intravenous dose was administered slowly in the tail vein (20 seconds per injection) using a 1 ml syringe with a 25G hypodermic needle to 5 male and 5 female mice. […] Body weight was recorded on Day 1, 2, 8 and 15. At termination of the study gross necropsy examination of all animals was carried out.

[3] = Stability in human serum; residual activity by radial diffusion assay with Staphylococcus carnosus; type: in vitro ADME; details: 37° C.; for Activity (%) 10% serum / Activity (%) 90% serum: 100 mg/L; for Activity (%) 10% serum: 10% human serum; for Activity (%) 90% serum: 90% human serum
Description: To assess the stability of the defensins in human serum, according to the invention, a solution of 100 mg/L of a defensin in fresh normal human serum is incubated at 37 degrees Celsius for 0, 1, 3, 6 and 24 hours. Residual activity is measured by performing radial diffusion assays with a sensitive indicator organism (e.g., Staphylococcus carnosus or E. coli); by performing a quantification by HPLC, LCMSMS; or by performing various ELISA techniques well known to a person skilled in the art.
To assess serum stability, Plectasin (100 mg/L) was incubated at 37° C. in 10% and 90% fresh normal human serum for 0, 1, 3, 6 & 24 hours. Residual activities were measured by performing radial diffusion assays with Staphylococcus carnosus.

[4] = Systemic availability: in vivo kinetics, serum concentration by LCMSMS; set-up: species or system NMRI female mice; details: for Serum concentration: 14 mg/kg single dose, individual mice; for Maximum observed mean concentration / Time of maximum observed mean concentration: serum
Description: The in vivo kinetics of plectasin was investigated in NMRI female mice, 25-30 gram (Harlan Scandinavia Aps), after a single 14 mg/kg dose, administered by either intravenous, subcutaneous or intraperitoneal routes. Plectasin concentrations in serum samples were determined 5, 15, 30, 60, 120 and 180 minutes after dosing, using two mice at each time point. At each time point, urine was collected, then mice were anaesthetized with CO2 and blood collected. The blood samples were centrifuged and serum collected. The concentration of plectasin in serum and urine were determined by LCMSMS.
The maximum observed mean concentrations for i.v., s.c. and i.p. dosing were: 95 mg/L after 5 min., 55 and 34 mg/L after 30 min., respectively.

[5] = test system: S. pneumoniae strain 68034; test: Treatment of pneumococcal peritoneal infection, colony counts in peritoneal wash, strain 68034; type: in vivo, mice; details: for Colony counts: strain 68034, peritoneal wash, individual mice
Description: as §1

S. pneumoniae 68034 = test: Survival after peritoneal infection with S. pneumoniae 68034; type: in vivo; details: s.c. 10 mg/kg BID for one or two days, groups of eight mice; vehicle 0/8, P<0.0002
Description: as §1
Treatment with Plectasin s.c. 10 mg/kg was initiated one hour after inoculation as described in Example 4A above. The following dosing regimens were investigated in groups of eight mice: vehicle treatment, Plectasin BID for one or two days. The survival fraction at seven days post-infection was 6/8 for Plectasin treated mice and 0/8 for vehicle treated mice (P<0.0002).

S. pneumoniae strain D39 [6] = test: Treatment of pneumococcal pneumonia, colony counts in lung homogenates; type: in vivo, mice; details: for Colony counts in lung homogenates: one day after treatment, individual mice
Description: Six to seven mice per sampling point (12 in the no-treatment group) were inoculated with S. pneumoniae (data only shown for strain D39) via the nasopharynx, and 24 hrs later the animals received Plectasin 10 mg/kg or penicillin 30 mg/kg.

S. pneumoniae D39 = test: Survival after peritoneal infection with S. pneumoniae D39; type: in vivo; details: groups of eight mice, vehicle 0/8
Description: as §1
Treatment with Plectasin s.c. 10 mg/kg was initiated one hour after inoculation as described in Example 4A above. The following dosing regimens were investigated in groups of eight mice: vehicle treated, Plectasin once daily (OD) for one day, twice daily (BID) for one day or BID for two days. […] The survival fraction of the vehicle treated control group was 0/8 mice (P<0.0002).

S. pneumoniae strain 6A = test: Treatment of pneumococcal peritoneal infection, colony counts in peritoneal wash, strain 6A; type: in vivo, mice; details: for Colony counts: peritoneal wash, individual mice
Description: as §1

[7] = 2 hours after single dose 10 mg/kg, 10 mg/kg
[8] = 5 hours after single dose 10 mg/kg, 10 mg/kg

Which results are given for “Plectasin: Defensin shown as amino acids 1 to 40 of SEQ ID NO: 2 in international patent application WO 03/044049; defensin antimicrobial peptide (GFGCNGPWDEDDMQCHNHCKSIKGYKGGYCAKGGFVCKCY; ends and bridges not checked; cysteine pairing not given here; UniProt Q53I06 56-95, looked up)”?
Colony counts compared to vehicle treated mice (S. pneumoniae strain D39 [1]; strain D39, 10 mg/kg, P<0.0001): significant lower; Colony counts (S. pneumoniae strain D39 [1]; 0 hours (prior to treatment)): 3.25E6 and 1.8E6 (2×); Colony counts (S. pneumoniae strain D39 [1]; [7]): 2.75E4 and 1.1E4 and 2E4; Colony counts (S. pneumoniae strain D39 [1]; [8]): 2.5E2 and 3.5E2 and 1E2; Finding at the injection site ([2]; 10 ml/kg, 15 minutes after treatment, 5 male and 5 female mice): all animals had a discoloration at the injection site; Other signs of toxicity ([2]; 10 ml/kg, observed over 14 days): No other signs of toxicity were observed; Gross necropsy ([2]; at termination of the study): no abnormalities; Activity (%) 10% serum ([3]; 0 hours): 100%; Activity (%) 10% serum ([3]; 1 hour): ˜100%; Activity (%) 10% serum ([3]; 3 hours): ˜100%; Activity (%) 10% serum ([3]; 6 hours): ˜100%; Activity (%) 10% serum ([3]; 24 hours): ˜100%; Activity (%) 90% serum ([3]; 0 hours): 100%; Activity (%) 90% serum ([3]; 1 hour): ˜100%; Activity (%) 90% serum ([3]; 3 hours): ˜100%; Activity (%) 90% serum ([3]; 6 hours): ˜100%; Activity (%) 90% serum ([3]; 24 hours): ˜100%; Residual activity (in words) ([3]; after 24 hours of incubation in 90% human serum): Full activity was retained; Terminal half-life ([4]; 14 mg/kg, mice, estimated): 49 to 54 min; Serum concentration ([4]; IP, 5 min, 14 mg/kg): 9400 ng/mL and 7200 ng/mL; Serum concentration ([4]; IP, 15 min, 14 mg/kg): 26000 ng/mL and 31600 ng/mL; Serum concentration ([4]; IP, 30 min, 14 mg/kg): 32500 ng/mL and 35400 ng/mL; Serum concentration ([4]; IP, 60 min, 14 mg/kg): 27700 ng/mL and 14300 ng/mL; Serum concentration ([4]; IP, 120 min, 14 mg/kg): 10900 ng/mL and 20300 ng/mL; Serum concentration ([4]; IP, 180 min, 14 mg/kg): 2600 ng/mL and 5600 ng/mL; Serum concentration ([4]; IV, 5 min, 14 mg/kg): 92100 ng/mL and 97900 ng/mL; Serum concentration ([4]; IV, 15 min, 14 mg/kg): 58800 ng/mL and 58100 ng/mL; Serum concentration ([4]; IV, 30 min, 14 mg/kg): 35700 ng/mL and 27300 ng/mL; Serum concentration ([4]; IV, 60 min, 14 mg/kg): 14900 ng/mL and 15600 ng/mL; Serum concentration ([4]; IV, 120 min, 14 mg/kg): 5300 ng/mL and 4900 ng/mL; Serum concentration ([4]; IV, 180 min, 14 mg/kg): 2300 ng/mL and 3500 ng/mL; Serum concentration ([4]; SC, 5 min, 14 mg/kg): 20300 ng/mL and 25400 ng/mL; Serum concentration ([4]; SC, 15 min, 14 mg/kg): 49400 ng/mL and 56600 ng/mL; Serum concentration ([4]; SC, 30 min, 14 mg/kg): 50300 ng/mL and 60000 ng/mL; Serum concentration ([4]; SC, 60 min, 14 mg/kg): 24800 ng/mL and 27200 ng/mL; Serum concentration ([4]; SC, 120 min): 29800 ng/mL; Serum concentration ([4]; SC, 180 min, 14 mg/kg): 4600 ng/mL and 7200 ng/mL; Maximum observed mean concentration ([4]; i.p., 14 mg/kg): 34 mg/L; Time of maximum observed mean concentration ([4]; i.p., 14 mg/kg): 30 min; Concentration-time behavior ([4]; i.v. bolus administration, WinNonlin): two-compartment behavior; Maximum observed mean concentration ([4]; i.v., 14 mg/kg): 95 mg/L; Time of maximum observed mean concentration ([4]; i.v., 14 mg/kg): 5 min; Maximum observed mean concentration ([4]; s.c., 14 mg/kg): 55 mg/L; Time of maximum observed mean concentration ([4]; s.c., 14 mg/kg): 30 min; Colony counts compared to vehicle treated mice ([5]; strain 68034, 10 mg/kg, P<0.0001): significant lower; Colony counts ([5]; 0 hours (prior to treatment)): 3E5 and 5.5E5 and 3.5E5; Colony counts [5, 7]: 3.25E4 (2×) and 1.5E4; Colony counts [5, 8]: 4E2 and 1E2 and 7.5E1; Survival fraction at seven days post-infection (S. pneumoniae 68034): 6/8; Colony counts compared to no treatment (S. pneumoniae strain D39 [6]; strain D39, 10 mg/kg): significant reduction; Colony counts in lung homogenates (S. pneumoniae strain D39 [6]; strain D39, 10 mg/kg given 24 hrs after inoculation): 3E1 (2×) and 5.25E3 and 6.75E2 and 9.75E4 and 2.25E3 and 1.5E2; Survival over the 7-day study period (S. pneumoniae D39; s.c. 10 mg/kg BID for two days): All mice treated with Plectasin survived; Survival over the 7-day study period (S. pneumoniae D39; s.c. 10 mg/kg once daily (OD) for one day): All mice treated with Plectasin survived; Survival over the 7-day study period (S. pneumoniae D39; s.c. 10 mg/kg twice daily (BID) for one day): except for one mouse; Colony counts compared to vehicle treated mice (S. pneumoniae strain 6A; 10 mg/kg, P<0.0001): significant lower; Colony counts (S. pneumoniae strain 6A; 0 hours (prior to treatment)): 1.1E6 and 1.55E6 and 1E6; Colony counts (S. pneumoniae strain 6A; [7]): 3.5E5 (2×) and 1.78E5; Colony counts (S. pneumoniae strain 6A; [8]): 2.13E4 and 1.43E3 and 1.45E3

What does the source list for penicillin [reference compound]?
Colony counts compared to no treatment (S. pneumoniae strain D39 [6]; strain D39, 30 mg/kg): significant reduction; Colony counts in lung homogenates (S. pneumoniae strain D39 [6]; strain D39, 30 mg/kg given 24 hrs after inoculation): 7.5E1 (3×) and 4.5E3 and 2.25E4 and 4.89E5
